In paper PMC11967829, “Nudix Hydrolase 13 Impairs the Initiation of Colorectal Cancer by Inhibiting PKM1 ADP‐Ribosylation” (Advanced Science, 2025):

B1: purified recombinant PKM1 (natural protein)
chain: not shown
notes: PKM1, the M1 splice isoform of pyruvate kinase M (PKM); also called purified PKM1; source: purified recombinant

Experiments:
recombinant human PARP1 = target: T1, recombinant human PARP1 (human, UniProt P09874 1-1014); assay: pull-down; in vitro pull-down of PKM1 and PARP1 (Figure 5E); details: both partners purified
T1 construct: PARP1 (poly ADP-ribose polymerase 1), human, recombinant; The source is named for the in vitro PARylation assay; source: bought: Sino Biological

[1] = target: B1; assay: pull-down; in vitro pull-down of N13 peptide with purified PKM1 or PKM2, Coomassie blue staining (Figure 7D); details: both partners purified

T1 sequence (P09874 whole entry): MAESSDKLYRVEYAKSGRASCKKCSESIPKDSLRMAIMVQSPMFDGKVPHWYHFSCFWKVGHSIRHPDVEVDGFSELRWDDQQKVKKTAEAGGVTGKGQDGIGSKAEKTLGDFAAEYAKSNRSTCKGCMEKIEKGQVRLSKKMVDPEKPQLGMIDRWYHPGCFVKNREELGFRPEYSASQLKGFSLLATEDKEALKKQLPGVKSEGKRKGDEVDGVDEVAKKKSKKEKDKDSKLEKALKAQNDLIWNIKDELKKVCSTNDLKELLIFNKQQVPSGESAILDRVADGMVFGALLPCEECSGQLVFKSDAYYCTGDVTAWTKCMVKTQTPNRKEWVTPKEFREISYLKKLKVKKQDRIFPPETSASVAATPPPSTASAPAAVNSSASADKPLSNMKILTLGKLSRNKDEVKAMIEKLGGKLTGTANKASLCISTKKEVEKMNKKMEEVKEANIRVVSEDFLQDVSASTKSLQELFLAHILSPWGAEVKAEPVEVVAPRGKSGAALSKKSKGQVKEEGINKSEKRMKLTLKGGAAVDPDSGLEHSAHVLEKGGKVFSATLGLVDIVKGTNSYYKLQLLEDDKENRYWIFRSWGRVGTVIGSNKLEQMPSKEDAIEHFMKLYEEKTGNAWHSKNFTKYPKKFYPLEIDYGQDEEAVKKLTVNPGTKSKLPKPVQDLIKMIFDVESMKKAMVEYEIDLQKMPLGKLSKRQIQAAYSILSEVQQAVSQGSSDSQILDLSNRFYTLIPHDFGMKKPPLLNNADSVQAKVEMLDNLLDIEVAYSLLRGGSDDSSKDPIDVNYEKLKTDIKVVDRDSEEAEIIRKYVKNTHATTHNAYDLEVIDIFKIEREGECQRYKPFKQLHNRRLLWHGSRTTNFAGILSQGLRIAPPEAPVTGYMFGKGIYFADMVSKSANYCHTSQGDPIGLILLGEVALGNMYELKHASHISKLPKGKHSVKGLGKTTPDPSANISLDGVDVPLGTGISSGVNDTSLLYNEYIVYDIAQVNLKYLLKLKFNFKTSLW

binding result (recombinant human PARP1) | binding result [1] | Binder
binds |  | B1
 | binds | GFCDIGESVEETIRREVAEEVGL (peptide, UniProt Q86X67 230-252, looked up, The peptide was synthesized conjugated with the membrane-penetrating peptide iRGD (N13-iRGD); also called N13-iRGD; source: synthetic peptide) [N13 peptide (mimic peptide of NUDT13 230–252 AA)]
